The target in one assay is T1, Human CD40-his (Homo sapiens, UniProt P25942).
T1 construct: His; purchased Acro biosystems CD0-H5228
In words: Octet kinetics of humanized C1H1 antibodies. In kind it is binding. As to conditions: Table 3, Octet; for Ka: humanized antibodies in cell supernatant, chimeric and benchmark 5 μg/mL. The method, then: After six days of culture in a shake flask, the cell supernatant containing the humanized antibodies huC1H1-V1 to huC1H1-V4 was harvested and the binding affinity of the antibodies to human CD40 was determined on an Octet system (Fortebio, Octet RED 96) according to the following procedures. Briefly, an anti-human IgG Fc capture (AHC) biosensor (from ForteBio) was pre-soaked in a 10 mM glycine solution (pH 1.5) for 3 s, and then soaked in a running buffer (PBST containing 0.5% w/v of BSA) for 3 s. The pre-soaking and soaking procedures were repeated 3 times. Then, the sensor was soaked in the cell supernatant containing the humanized anti-CD40 antibody, chimeric antibody C1H1 dissolved in HBS-EP^+ buffer at a concentration of 5 μg/mL, or the benchmark dissolved in HBS-EP^+ buffer at a concentration of 5 μg/mL for 120 s, and then soaked in the running buffer for 5 min. The new baseline was run in the running buffer for 180 s. The sensor was then soaked for 120 s in human CD40-his protein (Acro biosystems, Cat. No. CD0-H5228) 2-fold serially diluted from 40 nM in the running buffer and for 10 min in the running buffer […]. Finally, the sensor was pre-soaked in a 10 mM glycine solution (pH 1.5) for 3 s, and then soaked in the running buffer for 3 s. The pre-soaking and soaking procedures were repeated 3 times. The association and dissociation curves were fitted to a 1:1 Langmuir binding model using ForteBio Data Analysis 8.1.

A further assay has as its target binding of CD40 to CD40L (Homo sapiens, UniProt P25942). In words: Ligand blocking competitive ELISA. Particulars: in words, FIG. 5. How it is done: The ability of the anti-CD40 antibody to block the binding of CD40 to CD40L was determined by competitive ELISA. Briefly, a human CD40-Fc protein (amino acid residues 21-193 of SEQ ID NO: 30 linked to the N terminus of amino acid residues 99-330 of SEQ ID NO: 28) dissolved in the immobilization buffer (carbonate/bicarbonate buffer) at a concentration of 2 μg/mL was immobilized on a 96-well plate at 100 μL/well and incubated overnight at 4° C. The next day, the plate was washed once with a washing buffer (PBS+0.05% v/v of Tween-20, PBST) before a PBST containing 5% w/v of skim milk was added. The plate was then incubated at 37° C. for 2 h for blocking. The plate was then washed 4 times with the washing buffer.
The anti-CD40 antibody of the present application or the benchmark was serially 5-fold diluted from 200 nM in a PBST containing 2.5% w/v of skim milk, and the serially diluted anti-CD40 antibody or benchmark was added at 100 μL/well to a plate coated with CD40-Fc protein and incubated at 37° C. for 40 min. […] The absorbance of each well was read on a microplate reader using the dual wavelength mode (TMB detection wavelength: 450 nm, reference wavelength: 630 nm). […] Data were analyzed using Graphpad Prism software, and IC50 values were obtained.

Assay [1] deals with CD40 signal transduction in 293T-NF-κB-Luc-CD40 cells. As to the kind of experiment: Cell-based reporter assay. Further details: species or system human. As to conditions: in words, FIGS. 2A-2C and 7. The source says:
The agonistic activity of the anti-CD40 antibody of the present application was further determined in a CD40 expression reporter cell line 293T-NF-κB-Luc-CD40, which stably expresses full-length human CD40 (uniprot No. P25942-1, SEQ ID NO: 30). According to the instructions of lipofectamine 3000 transfection reagent (Thermo Fisher), a pGL4.32 [luc2P NF-κB-RE Hygro] vector (Promega, GenBank® Accession No. EU581860) and a pCMV-T-P plasmid (with a CD40 coding sequence inserted between the EcoRI and Khal loci) were transfected into 293T cells in sequence to prepare 293T-NF-κB-Luc-CD40 cells.
Briefly, 293T-NF-κB-Luc-CD40 cells at the log phase were resuspended in DMEM medium (Gibco Inc., Cat. No. 10566-016) containing 10% of FBS (Gibco Inc., Cat. No. 10099-141), and seeded on a 384-well plate (Corning, Cat. No. 3707) at 20 μL/well (containing 5×10^3 cells). Then, the anti-CD40 antibody of the present application or the controls (including an in-house prepared anti-CD22 antibody as a negative control) serially 3-fold diluted from 200 nM in the medium was added at 20 μL per well and incubated at 37° C. for 6 h. […] The chemiluminescence values were measured using Tecan Infinit® 200 Pro. Data were analyzed using Graphpad Prism software, and EC50 values were obtained.

Like-named read-outs stand apart in the source and are kept apart here.

T1 sequence (P25942 21-277): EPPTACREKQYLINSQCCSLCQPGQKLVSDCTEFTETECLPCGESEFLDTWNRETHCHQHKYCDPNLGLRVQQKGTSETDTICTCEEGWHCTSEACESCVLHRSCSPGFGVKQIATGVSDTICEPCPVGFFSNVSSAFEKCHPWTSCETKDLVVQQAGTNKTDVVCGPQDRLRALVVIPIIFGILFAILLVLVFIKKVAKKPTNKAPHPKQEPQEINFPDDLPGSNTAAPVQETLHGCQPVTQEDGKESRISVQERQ
binding of CD40 to CD40L, sequence (P25942 21-193): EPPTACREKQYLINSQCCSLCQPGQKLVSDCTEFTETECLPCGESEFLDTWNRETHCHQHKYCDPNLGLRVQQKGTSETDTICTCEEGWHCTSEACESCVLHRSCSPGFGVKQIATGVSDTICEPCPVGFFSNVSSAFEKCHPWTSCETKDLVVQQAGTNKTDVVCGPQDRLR

B1: huC1H1-V1: humanized C1H1 anti-CD40 antibody, VH SEQ ID NO: 20 X1=A, VL SEQ ID NO: 24 X1=K X2=F, human IgG2/κ (antibody, V domains shown)
VH: EVQLVESGGGLVKPGGSLRLSCAASGFTFSNYGISWVRQAPGKGLEWVXSISSGGDNTYYPDNVKGRFTISRDNAKNSLYLQMNSLRAEDTAVYYCARAGEKAMDYWGQGTLVTVSS
VL: EIVLTQSPATLSLSPGERATLSCRASQTINNNLHWYQQKPGQAPRLLIXYASQSISGIPARFSGSGSGTDFTLTISSLEPEDFAVYXCQQFSSWPLTFGGGTKVEIK
modifications: not fully specified; human IgG2/kappa constant regions; VH of huC1H1-V1 to huC1H1-V4; VARIANT 49 X can be A or S; VL of huC1H1-V1 to huC1H1-V4; VARIANT 49 X can be K or Y; VARIANT 87 X can be F or Y
Consider B1, for which the Kd stood at 0.00128 s⁻¹ with Human CD40-his (dissociation rate) and 0.904 nM with Human CD40-his (read-out: KD). For the same molecule, in the assay with Human CD40-his, the Ka worked out at 1.41e+06 M⁻¹ s⁻¹. Also, the “Blocking of the binding of CD40 to CD40L” value with binding of CD40 to CD40L was “comparable or slightly lower blocking activity relative to BM1 and BM2”. For the same molecule, the “Agonistic activity (activation of CD40 signal transduction)” value in assay [1] is “higher than those of BM1 and BM2”.

B2: huC1H1-V2: humanized C1H1 anti-CD40 antibody, VH SEQ ID NO: 20 X1=S, VL SEQ ID NO: 24 X1=K X2=F, human IgG2/κ (antibody, V domains shown)
VH: EVQLVESGGGLVKPGGSLRLSCAASGFTFSNYGISWVRQAPGKGLEWVXSISSGGDNTYYPDNVKGRFTISRDNAKNSLYLQMNSLRAEDTAVYYCARAGEKAMDYWGQGTLVTVSS
VL: EIVLTQSPATLSLSPGERATLSCRASQTINNNLHWYQQKPGQAPRLLIXYASQSISGIPARFSGSGSGTDFTLTISSLEPEDFAVYXCQQFSSWPLTFGGGTKVEIK
modifications: not fully specified; variable positions X1=S; VL X1=K X2=F; IgG2/kappa constant; VH of huC1H1-V1 to huC1H1-V4; VARIANT 49 X can be A or S; VL of huC1H1-V1 to huC1H1-V4; VARIANT 49 X can be K or Y; VARIANT 87 X can be F or Y
Regarding B2, the Kd stood at 0.000981 s⁻¹ with Human CD40-his (dissociation rate) and 0.596 nM with Human CD40-his (read-out: KD). Also, in the assay with Human CD40-his, the Ka is 1.65e+06 M⁻¹ s⁻¹. Moreover, the “Blocking of the binding of CD40 to CD40L” value with binding of CD40 to CD40L is “comparable or slightly lower blocking activity relative to BM1 and BM2”. In assay [1], the “Agonistic activity (activation of CD40 signal transduction)” value is “higher than those of BM1 and BM2”.

Values taken from patent US20240398942A1, “USE OF ANTI-CD40 ANTIBODY” (CHIA TAI TIANQING PHARMACEUTICAL GROUP CO., LTD., priority 2021, published 2024).
